Where a chain is given by its changes, count along the chain named. In names and notes the source's numbering stands.

Test [1] concerns the target T1, recombinant protein of the hDlk-1 extracellular region (hDlk-1-His) (human, UniProt P80370 24-303).
T1 construct: not shown: His tag
T1 sequence: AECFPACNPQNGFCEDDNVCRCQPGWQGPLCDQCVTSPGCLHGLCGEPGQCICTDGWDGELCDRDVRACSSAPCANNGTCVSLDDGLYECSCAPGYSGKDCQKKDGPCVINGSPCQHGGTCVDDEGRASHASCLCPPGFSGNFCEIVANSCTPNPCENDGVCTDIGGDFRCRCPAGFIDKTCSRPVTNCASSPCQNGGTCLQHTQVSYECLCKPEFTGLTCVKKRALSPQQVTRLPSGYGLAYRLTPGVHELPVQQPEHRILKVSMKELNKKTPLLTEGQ
In words: ELISA second format: hDlk-1-His coated at 0.5 µg/ml, antibody titrated from 5 µg/ml. For orientation: In an ELISA, binding on a coated surface is turned into a signal by an enzyme label.

Test [2] concerns the target T1, recombinant protein of the hDlk-1 …. In words: ELISA third format: hDlk-1-His coated at 0.05 µg/ml, purified antibodies.
Protocol: As a third format of ELISA, hDlk-1-His to be coated on a 96-well plate was diluted to a concentration of 1/10, and 0.05 μg/ml hDlk-1-His was then added in an amount of 100 μl/well to the 96-well plate, followed by coating at 4° C. overnight, so as to produce an ELISA plate coated with a low concentration of hDlk-1-His.

B1: humanized BA-1-3D IgG1/κ antibody (HuBA-1-3D-1) (antibody, V domains shown)
VH: QVQLVQSGAEVKKPGASVKVSCKASGYTFTDYAMHWVRQAPGQGLEWIGVISTYYGNTNYNQKFKGKATMTVDTSTSTAYMELRSLRSDDTAVYYCARGGLREYYYAMDYWGQGTMVTVSS
VL: DIVMTQSPDSLAVSLGERATINCKSSQSLLNSSNQKNYLAWYQQKPGQPPKLLVYFASTRESGVPDRFSGSGSGTDFTLTISSLQAEDVAVYYCQQHYSTPPTFGQGTKLEIKR
Turning to B1, in test [1], the EC50 (in general, the concentration needed to bring the measured effect to its halfway point) came to 0.148 mg/L.

B2: humanized BA-1-3D IgG1/κ antibody (HuBA-1-3D-2) (antibody, V domains shown)
VH: B1 VH with K67R
VL: B1 VL
Consider B2, for which the half-maximal effective concentration (EC50) in test [1] turned out to be 0.154 mg/L.

B3: HuBA-1-3D-1-A24G/T73K (antibody, human IgG1, kappa, V domains shown)
VH: B1 VH with A24G, T74K
VL: B1 VL
notes: human IgG1/κ; also called A24G/T73K mutant; HuBA-1-3D-A24G/T73K
Consider B3, for which the EC50 in test [2] was 0.0355 mg/L.

B4: mouse-human chimeric BA-1-3D IgG1/κ antibody (ChBA-1-3D) (antibody, V domains shown)
VH: QVQLQQSGPELVRPGVSVKISCKGSGYTFTDYAMHWVKQSHAKSLEWIGVISTYYGNTNYNQKFKGKATMTVDKSSSTAYMELARLTSEDSAIYYCARGGLREYYYAMDYWGQGTSVTVSS
VL: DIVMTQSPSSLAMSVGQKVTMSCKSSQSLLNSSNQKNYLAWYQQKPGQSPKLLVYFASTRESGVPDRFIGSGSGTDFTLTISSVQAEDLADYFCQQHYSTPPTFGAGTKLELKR
In the case of B4, the EC50 in test [1] worked out at 0.116 mg/L; in test [2] it was 0.0254 mg/L.
